# Assay results reported in US20040005543, “Compositions and methods for binding agglomeration proteins” (published 2004).
# B1: MNV:AP1 (PrP-Amp) (ssRNA)
# RNA: GGGUUCAUAGCCUAUUCGGCUUCGCGCAUGGGAAUUUGAGGGACGAUGGGGAAGUGGGAGCGCGUUUUAAAGGACCUUUUUCCCUCGCGUAGCUAGCUACGCGAGGUGACCCCCCGAAGGGGGGUGCCCC
# B2: MNV (ssRNA)
# RNA: GGGUUCAUAGCCUAUUCGGCUUUUAAAGGACCUUUUUCCCUCGCGUAGCUAGCUACGCGAGGUGACCCCCCGAAGGGGGGUGCCCC
# B3: RQ11+12 (ssRNA)
# RNA: GGGGUUUCCAACCGGAAUUUGAGGGAUGCCUAGGCAUCCCCCGUGCGUCCCUUUACGAGGGAUUGUCGACUCUAGUCGACGUCUGGGCGAAAAAUGUACGAGAGGACCUUUUCGGUACAGACGGUACCUGAGGGAUGCCUAGGCAUCCCCCGCGCCGGUUUCGGACCUCCAGUGCGUGUUACCGCACUGUCGACCC
# B4: RQT157 (ssRNA)
# RNA: GGGGUUUCGAACCGGAAUUUGAGGGAUGCCUAGGCAUCCCCCGUGCGUCCCUUUACGAGGGAUUGUCGACUCUAGAGGAUCCGGUACCUGAGGGAUGCCUAGGCAUCCCCGCGCGCCGGUUUCGGACCUCCAGUGCGUGUUACCGCACUGUCGACCC
# Experiments:
# [1] = biological target: T1, hrPrP23-231 (recombinant human prion protein, full length) (Homo sapiens, UniProt P04156 P04156:23-231); experiment: filter; […]; 2 mM MgCl2, 250 mM NaCl, 37 C; […]; conditions: tags: provided by Man-Sun Sy, Case Western; label: internal 32P; G4 (AP1 insert)
# [2] = biological target: hrPrP90-231 (C-terminal portion) (Homo sapiens, UniProt P04156 P04156:90-231); experiment: filter; 20 nM protein; no detectable binding; conditions: tags: provided by Man-Sun Sy, Case Western, label: internal 32P
# [3] = biological target: T1, hrPrP23-231 (recombinant human prion …); experiment: filter; no tRNA; 2 mM MgCl2, 250 mM NaCl, 37 C; conditions: tags: provided by Man-Sun Sy, Case Western; label: internal 32P
# [4] = biological target: T1, hrPrP23-231 (recombinant human prion …); experiment: filter; with 10 ng/uL tRNA; 250 mM NaCl, 37 C; conditions: tags: provided by Man-Sun Sy, Case Western; label: internal 32P
# [5] = biological target: T2, hrPrP23-144 (N-terminal portion) (Homo sapiens, UniProt P04156 P04156:23-144); experiment: filter; 20 nM protein, no tRNA; conditions: tags: provided by Man-Sun Sy, Case Western; label: internal 32P
# [6] = biological target: BSA (bovine serum albumin) (UniProt P02769 P02769:25-607); experiment: filter; Buffer A with 10 ng/uL tRNA; background level; conditions: tags: Ultra-pure BSA, Ambion; label: internal 32P
# [7] = biological target: T2, hrPrP23-144 (N-terminal portion); experiment: filter; 20 nM protein, Buffer B with tRNA; conditions: tags: provided by Man-Sun Sy, Case Western; label: internal 32P
# [8] = biological target: lysozyme (UniProt P00698 P00698:19-147); experiment: filter; 2 nM RNA, 20 nM protein, Buffer A with 10 ng/uL tRNA; background level; conditions: label: internal 32P
binder,measurement,setting,value
B1,Kd,[1],3.8 nM
same,binding result,[2]; G4 (AP1 insert),no binding
GGGAAUUUGAGGACGAUGGUAAGUGG (ssRNA) [AP46],Kd,[3],14 nM
same,Kd,[4],100 nM
B2,binding result,[5],binds
same,binding result,[2],no binding
B3,binding result,[6],no binding
same,binding result,[7],binds
same,binding result,[8],no binding
same,binding result,[2],no binding
B4,Kd,[3],56 nM
